In patent US20050221395A1, “Methods and products based on oligomerization of stress proteins” (priority 2002, published 2005):
Where “and” joins values, the source holds several entries; their conditions need not be identical. Identical values can stand only once.

What was measured:
[1] = system: AH1 peptide-specific CTLs co-cultured with RAW264.7 cells; experiment: hybrid antigen re-presentation assay (IFN-γ by ELISA); assay type: cell-based, mouse; details: for IFN-γ response (T-cell stimulation): 10 μg/mL or diluted with unloaded gp96 at 1:3, 1:10 or 1:30, APCs and CTLs (FIG. 7); for ability to stimulate T-cells: heated at 60° C. for 10 min
Method: For this purpose, a hybrid antigen re-presentation bioassay system was developed in which the mouse antigen, AH1 peptide, for which a mouse CD8 T-cell line is available, was exchanged in vitro onto human tumor derived hsp. The gp96-peptide complex was then tested for its ability to facilitate antigen re-presentation and antigen-specific T-cell stimulation.
The antigen presenting cell line, RAW264.7 (ATCC #TIB-71), is an Abelson murine leukemia virus transformed macrophage cell line, which originated from the BALB/c strain (H-2^d). The CTL line specific for the murine CT26 tumor derived AH1 epitope was obtained from P. Srivastava (U. of Conn. Medical Center). They were re-stimulated on a weekly basis with the AH1 peptide plus irradiated BALB/c splenocytes. The 9 amino acid AH1 peptide epitope ([…]) and the 19mer peptide ([…]) which contained this epitope were obtained from Sigma Genosys 1442 lake Front Circle, The Woodlands, Tex. 77380-3600.
AH1 19mer peptide was added to purified gp96 preparations at a ratio of 50:1 peptide to protein and the mixture incubated at 37° C. for 30 mm. Unbound peptide was removed by 4 cycles of spin dialysis with 10 volumes of PBS using 30K MWCO Centricon spin filter units (Millipore). Total protein was determined by the Bradford assay.
The in vitro antigen re-presentation assay has been described. Briefly, 10^4 AH1 peptide-specific CTLs (day 8 post stimulation) were co-cultured with 10^4 RAW264.7 cells in 96-well flat bottom plates. In vitro loaded gp96 samples at 10 μg/mL were analyzed neat or diluted with unloaded gp96 at the indicated amounts in order to maintain constant protein concentration. Protein samples and controls were added to the wells and incubated at 37° C. for 18 hr. Following centrifugation, the supernatants were harvested for analysis of IFN-γ levels by ELISA (R&D Systems). Reported values represent the average of six replicates. AH1 9mer peptide served as a positive control and unloaded gp96, AH1 19mer peptide and media alone as negative controls. Additional negative controls were provided by applying identical sets of samples to plates that contained either CTLs or APCs only.
The hybrid re-presentation assay measures the ability of human gp96, loaded with AH1 19mer peptide, to deliver antigen to mouse APCs to facilitate re-presentation leading to simulation of antigen specific T-cells. […] The second and third panels are controls for CTLs and APCs alone. Each data set contains media alone, unloaded gp96 and AH1 19mer as negative controls and AH1 9mer peptide, which can exchange directly onto surface MHC I molecules, as the positive control. Gp96/AH1 19mer complex was applied at 10 μg/mL or diluted with unloaded gp96 at 1:3, 1:10 or 1:30.

[2] = ATPase activity, luciferin-luciferase luminescence assay (geldanamycin inhibitable); assay type: biochemical; details: for ATPase activity of SEC fractions (rate of ATP hydrolysis per mg protein): SEC fractions of human tumor derived gp96-peptide complex (FIG. 6); for ATPase: gp96 loaded with AH1 19mer peptide
Method: Finally, ATPase activity of each fraction was determined based on the loss of ATP using a luciferin-luciferase luminescence assay. Values are reported as the rate of ATP hydrolysis per mg protein. […] The ATPase activity was in the dimer containing fractions with minimal activity in the high molecular weight aggregate and monomer fractions.
ATPase activity was measured as the loss of ATP following 4 hr. of incubation at 37° C. using a luciferin-luciferase luminescence assay. Values are reported as the rate of ATP hydrolysis per mg protein and represent only the activity that is geldanamycin inhibitable to ensure specificity for the hsp90 family of heat shock proteins.
The assay is performed as follows. Gp96 samples (2 μL, 500 μg/mL in PBS) were mixed with 2 μL of a solution comprising a 10 fold molar excess ATP in PBS containing 12.5 mM MgCl2, and either 20% (v/v) DMSO or DMSO containing […] geldanamycin. This mixture was incubated at 37° C. for 4 hr. Samples were then diluted to 100 μL with PBS and the ATP contained in 50 μL of each sample was quantified using the ROCHE CLSII bioluminescence ATP assay kit. Bioluminescence was measured using a Molecular Devices Lmax luminometer. The difference in ATP concentration between uninhibited and Geldanamycin-inhibited measurements reflects the amount of ATP hydrolysis specific to gp96. Rates were calculated from this differential and expressed as nmoles of ATP hydrolyzed per mg protein per hr.

[3] = % dimer by size exclusion chromatography (SEC); assay type: physicochemical; details: for % Dimer: Superose 6 column, gp96 loaded with AH1 19mer peptide; for dimeric form by SEC: mild heat treatment
Method: Gp96-peptide complex was isolated from murine CT-26 tumors. Separate aliquots of each preparation were either maintained at 4° C. (untreated) or subjected to mild heat treatment to denature the complex.
HPLC size exclusion chromatography is currently being optimized and has been run under a few different formats. The column was either a TSK 3000SWXL (Toso Haus) or a Superose 6 (Amersham Pharmacia) equilibrated in 10 mM phosphate buffer, pH 7.1, with 300 mM NaCl. All experiments were run at room temperature on a Waters Alliance or HP 1100 HPLC systems at a flow rate of 0.5 mL/min. The following results for human tumor derived gp96 (reported in Table 3, below) were all analyzed on the Superose 6 column. % dimer values represent the area percent of the dimer peak relative to total peak area.

[4] = NECA ligand binding
Method: Dimer content also correlates with the ability of gp96 to bind NECA. Using the gp96-peptide complex isolated from CT-26 tumors, aliquots of each preparation were also analyzed for NECA ligand binding.

[5] = system: Tumor specific T-cell; experiment: antigen re-presentation and T-cell activation measured by IFN-γ release; assay type: cell-based, murine
Method: Re-presentation of antigenic peptides by hsps is another biological activity of significance. […] Immune response mediated by RAW264.7 APCs and CTLs specific to the peptide of the gp96 complex was measured by IFN-γ levels secreted by the CTLs. IFN-γ is a cytokine that is known in the art to be an indicator of general immune status; it also plays a major role in tumor recognition and rejection. […] A re-presentation assay is described in section 8, by way of example and not limitation.
The same samples were then analyzed for antigen re-presentation and T-cell activation as measured by IFN-γ expression.

## unloaded gp96: human tumor derived gp96 not loaded with AH1 19mer peptide; negative control and diluent
[1]
  IFN-γ response (T-cell stimulation): no stimulation

## Fractions 8-10: SEC fractions of human ovarian tumor derived gp96-peptide complex representing the dimer
[2]
  ATPase activity of SEC fractions (rate of ATP hydrolysis per mg protein): highest

## fractions 2-5: SEC fractions of human ovarian tumor derived gp96-peptide complex containing mostly higher molecular weight aggregates
[2]
  ATPase activity of SEC fractions (rate of ATP hydrolysis per mg protein): significantly less

## human endometrial: gp96 purified from human endometrial tumor, loaded in vitro with AH1 19mer peptide (RVTYHSPSYVYHQFERRAK)
[3]; heated at 60° C. for 10 min
  % Dimer: 0%
[3]; untreated
  % Dimer: 86% and 83%
[1]
  IFN-γ response (T-cell stimulation): dose dependent IFN-γ response
  ability to stimulate T-cells: abolished
[2]; heated at 60° C. for 10 min
  ATPase: 0 nmol/mg/h
[2]; untreated
  ATPase: 8.5 ± 0.3 nmol/mg/h and 9.4 ± 0.5 nmol/mg/h

## human gp96-peptide complex: human gp96-peptide complex used in accelerated stability (mild heat) study
[3]
  dimeric form by SEC: converted dimeric protein to high molecular weight aggregates
[2]; mild heat treatment
  ATPase activity: abolished

## human renal: gp96 purified from human renal cell carcinoma, loaded in vitro with AH1 19mer peptide
[3]; heated at 60° C. for 10 min
  % Dimer: 0%
[3]; untreated
  % Dimer: 84%
[1]
  IFN-γ response (T-cell stimulation): specific and dose dependent stimulation of T-cells
  ability to stimulate T-cells: abrogated
[2]; heated at 60° C. for 10 min
  ATPase: 0 nmol/mg/h
[2]; untreated
  ATPase: 10.3 ± 0.1 nmol/mg/h

## fractions 11-15: SEC fractions of human ovarian tumor derived gp96-peptide complex: monomeric species, degradation products and lower molecular weight species
[2]
  ATPase activity of SEC fractions (rate of ATP hydrolysis per mg protein): significantly less

## recombinant gp96: samples of recombinant gp96 incubated at various temperatures for 10 minutes (FIG. 8)
[2]; incubated at the indicated temperatures for 10 minutes (FIG. 8)
  ATPase activity: loss of ATPase activity

B1: gp96-peptide complex isolated from CT-26 tumors: Gp96-peptide complex isolated from murine CT-26 tumors; aliquots kept at 4° C. or heat treated (protein, UniProt P08113 22-802, looked up)
Endoplasmin: DDEVDVDGTVEEDLGKSREGSRTDDEVVQREEEAIQLDGLNASQIRELREKSEKFAFQAEVNRMMKLIINSLYKNKEIFLRELISNASDALDKIRLISLTDENALAGNEELTVKIKCDKEKNLLHVTDTGVGMTREELVKNLGTIAKSGTSEFLNKMTEAQEDGQSTSELIGQFGVGFYSAFLVADKVIVTSKHNNDTQHIWESDSNEFSVIADPRGNTLGRGTTITLVLKEEASDYLELDTIKNLVRKYSQFINFPIYVWSSKTETVEEPLEEDEAAKEEKEESDDEAAVEEEEEEKKPKTKKVEKTVWDWELMNDIKPIWQRPSKEVEEDEYKAFYKSFSKESDDPMAYIHFTAEGEVTFKSILFVPTSAPRGLFDEYGSKKSDYIKLYVRRVFITDDFHDMMPKYLNFVKGVVDSDDLPLNVSRETLQQHKLLKVIRKKLVRKTLDMIKKIADEKYNDTFWKEFGTNIKLGVIEDHSNRTRLAKLLRFQSSHHSTDITSLDQYVERMKEKQDKIYFMAGSSRKEAESSPFVERLLKKGYEVIYLTEPVDEYCIQALPEFDGKRFQNVAKEGVKFDESEKTKESREATEKEFEPLLNWMKDKALKDKIEKAVVSQRLTESPCALVASQYGWSGNMERIMKAQAYQTGKDISTNYYASQKKTFEINPRHPLIRDMLRRIKEDEDDKTVMDLAVVLFETATLRSGYLLPDTKAYGDRIERMLRLSLNIDPEAQVEEEPEEEPEDTSEDAEDSEQDEGEEMDAGTEEEEEETEKESTEKDEL
modifications: CT-26 tumor derived, complexed with peptides
notes: Gp96-peptide complex isolated from murine CT-26 tumors; aliquots kept at 4° C. or heat treated
[3]; 4° C. (untreated)
  % Dimer by SEC: 84.44% and 87% and 75.8%
[3]; 49° C. at 15 min
  % Dimer by SEC: 74%
[3]; 49° C. at 25 min
  % Dimer by SEC: 54%
[3]; 49.5° C. at 30 min
  % Dimer by SEC: 0%
[3]; 60° C. at 30 min
  % Dimer by SEC: 0%
[3]; 60° C. at 60 min
  % Dimer by SEC: 0%
[3]; 60° C. at 120 min
  % Dimer by SEC: 0%
[3]
  dimeric form by SEC: rapidly converts to higher molecular weight aggregates
[4]; 4° C. (untreated)
  Specific NECA activity: 1.68 μg NECA bound gp96/μg gp96 and 1.96 μg NECA bound gp96/μg gp96 and 3.27 μg NECA bound gp96/μg gp96
[4]; 49° C. at 15 min
  Specific NECA activity: 1.97 μg NECA bound gp96/μg gp96
[4]; 49° C. at 25 min
  Specific NECA activity: 1.80 μg NECA bound gp96/μg gp96
[4]; 49.5° C. at 30 min
  Specific NECA activity: 0.12 μg NECA bound gp96/μg gp96
[4]; 60° C. at 30 min
  Specific NECA activity: 0.04 μg NECA bound gp96/μg gp96 and 0.07 μg NECA bound gp96/μg gp96
[4]; 60° C. at 60 min
  Specific NECA activity: 0.08 μg NECA bound gp96/μg gp96
[4]; 60° C. at 120 min
  Specific NECA activity: 0.10 μg NECA bound gp96/μg gp96
[5]; 49° C. at 15 min
  Tumor specific T-cell activation (IFN-γ release): 0 pg/mL
[5]; 49° C. at 25 min
  Tumor specific T-cell activation (IFN-γ release): 0 pg/mL
[5]; 49.5° C. at 30 min
  Tumor specific T-cell activation (IFN-γ release): 3150 pg/mL
[5]; 60° C. at 60 min
  Tumor specific T-cell activation (IFN-γ release): 9350 pg/mL
[5]; 60° C. at 120 min
  Tumor specific T-cell activation (IFN-γ release): 8100 pg/mL
